Data published in the supplement of paper PMC10126150.
± gives the standard deviation of the averaged measurements.

Tested on: ATP
Assay: switch fluorescence ratio, 500 uM ATP over buffer (Cy3 cluster intensity, sum of 5 cycles each) (fold (ratio)); higher = stronger signal-on switching upon ATP binding; sequences stand for … in TCGTCGGCAGCGTCAGATGTGTATAAGAGACAGTTTTTTTTTTTTTTTTTTTTTTTTT…TC
Settings: aptamer strand: ATP DNA aptamer (quencher-CACCTGGGGGAGTATTGCGGAGGAAGG + anchor), 100 nM annealed; ATP concentration: 500 uM
In short: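 Cy3-labelled switching-strand clusters on a modified Illumina MiSeq flow-cell were annealed to 100 nM quencher-labelled ATP aptamer and imaged first in selection buffer, then after 15 min with 500 uM ATP at 22 °C. NaOH stripping and re-annealing separated each of five buffer/ATP cycles, and clusters outside 100-1000 RFU were excluded. The fluorescence ratio sums target-cycle Cy3 intensity over buffer-cycle Cy3 intensity per cluster and averages it per switch-domain sequence.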
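Also: ATP exposure 15 min at 22 °C before imaging.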

| Sequence | switch fluorescence ratio |
| --- | --- |
| CACTAACCCT | 1.148 ± 0.0044 |
| CACTAATGAG | 1.0254 ± 0.00028 |
| CACTACGACT | 1.084 ± 0.0034 |
| CACTACGGCC | 1.04 ± 0.043 |
| CACTAGAAGC | 1.037 ± 0.0012 |
| CACTAGGCTT | 1 ± 0.045 |
| CACTAGTAGA | 1.03 ± 0.028 |
| CACTAGTGGG | 1 ± 0.0024 |
| CACTATGGTG | 1.05 ± 0.066 |
| CACTCATACT | 1.16 ± 0.029 |
| CACTCCCGGA | 1.15 ± 0.16 |
| CACTGAGCTG | 1.07 ± 0.077 |
| CACTGATGCC | 1.04 ± 0.019 |
| CACTGTAACG | 1.194 ± 0.0063 |
| CACTTCCTTT | 1.39 ± 0.51 |
| CACTTCTGAA | 0.987 ± 0.017 |
| CACTTCTTAT | 0.973 ± 0.021 |
| CACTTGACGT | 1.21 ± 0.034 |
| CACTTGGAAG | 1 ± 0.028 |
| CACTTTGGAT | 0.9914 ± 0.0032 |
| CAGAAAGAGC | 0.969 ± 0.0086 |
| CAGAAAGATA | 0.997 ± 0.018 |
| CAGAAGGATA | 1.03 ± 0.013 |

| Sequence | switch fluorescence ratio |
| --- | --- |
| CAGAATTGGG | 0.967 ± 0.028 |
| CAGACCCCAT | 1.06 ± 0.035 |
| CAGACGTTTT | 0.9917 ± 0.0094 |
| CAGACTCGGT | 1.02 ± 0.024 |
| CAGACTGGTT | 1.011 ± 0.0067 |
| CAGAGAAAC | 1.1 ± 0.12 |
| CAGAGGAGGT | 0.982 ± 0.017 |
| CAGAGGATAG | 1.017 ± 0.0088 |
| CAGAGGATAT | 1.021 ± 0.01 |
| CAGAGGGCTA | 1.03 ± 0.038 |
| CAGAGGGGCG | 1.04 ± 0.043 |
| CAGAGGGGGG | 0.994 ± 0.019 |
| CAGAGGGGTC | 0.999 ± 0.022 |
| CAGAGGTGCG | 0.969 ± 0.056 |
| CAGAGTAAGC | 1.01 ± 0.021 |
| CAGAGTAATA | 1.45 ± 0.1 |
| CAGATAAAAA | 1.03 ± 0.02 |
| CAGATAATAT | 1.04 ± 0.022 |
| CAGATAGGCT | 1.04 ± 0.019 |
| CAGATAGTGT | 1.018 ± 0.002 |
| CAGATGATAT | 0.992 ± 0.047 |
| CAGATTAAGT | 0.992 ± 0.03 |
| CAGATTTTTT | 0.982 ± 0.028 |

| Sequence | switch fluorescence ratio |
| --- | --- |
| CAGCAGGGAG | 1.1 ± 0.096 |
| CAGCATGGGG | 1.03 ± 0.017 |
| CAGCCAAATA | 1.1 ± 0.029 |
| CAGCCGCTGT | 1.79 ± 0.026 |
| CAGCCGTTTC | 1.03 ± 0.033 |
| CAGCCTTGGT | 1.04 ± 0.11 |
| CAGCGAGGAA | 1.014 ± 0.0091 |
| CAGCGCCGTT | 1.006 ± 0.004 |
| CAGCGCGGGA | 0.999 ± 0.014 |
| CAGCGGAGGT | 1.025 ± 0.0052 |
| CAGCGGTGGG | 1.02 ± 0.029 |
| CAGCGTATCA | 1.01 ± 0.0018 |
| CAGCTAGTGG | 1.011 ± 0.0011 |
| CAGCTCTGGG | 1 ± 0.022 |
| CAGCTGTCGG | 1.1 ± 0.12 |
| CAGCTTGATA | 0.979 ± 0.018 |
| CAGGAACCGA | 1.14 ± 0.017 |
| CAGGAACTGT | 0.985 ± 0.018 |
| CAGGAACTTG | 0.956 ± 0.023 |
| CAGGAAGGAT | 0.994 ± 0.016 |
| CAGGAATATA | 1.014 ± 0.0049 |
| CAGGACCTCG | 1.03 ± 0.024 |
| CAGGAGAAGG | 1.05 ± 0.022 |

| Sequence | switch fluorescence ratio |
| --- | --- |
| CAGGAGACGA | 1.03 ± 0.025 |
| CAGGAGCTGT | 1.2 ± 0.034 |
| CAGGATACGC | 1.21 ± 0.34 |
| CAGGATCATG | 1.11 ± 0.15 |
| CAGGATTTGG | 0.985 ± 0.013 |
| CAGGATTTTT | 0.993 ± 0.042 |
| CAGGCCTAGG | 0.946 ± 0.024 |
| CAGGCGACTG | 0.9706 ± 0.0041 |
| CAGGCGAGGG | 0.9905 ± 0.0078 |
| CAGGCGTGCA | 0.998 ± 0.018 |
| CAGGCTGGAC | 1.06 ± 0.046 |
| CAGGCTGTCG | 1.02 ± 0.036 |
| CAGGCTTTTT | 1 ± 0.029 |
| CAGGGAGCTT | 1.01 ± 0.03 |
| CAGGGAGGGA | 0.992 ± 0.02 |
| CAGGGATGTG | 1.03 ± 0.013 |
| CAGGGATTAA | 0.9842 ± 0.0036 |
| CAGGGATTTT | 0.98 ± 0.022 |
| CAGGGCGATA | 1.1 ± 0.033 |
| CAGGGCGGA | 0.993 ± 0.015 |
| CAGGGCGGGC | 0.84 ± 0.073 |
| CAGGGCTATT | 1.01 ± 0.037 |
| CAGGGGAGCG | 0.993 ± 0.037 |

| Sequence | switch fluorescence ratio |
| --- | --- |
| CAGGGGCCGG | 0.978 ± 0.018 |
| CAGGGGCGGA | 1.04 ± 0.03 |
| CAGGGGCGGG | 0.966 ± 0.11 |
| CAGGGGGAAT | 1.1 ± 0.11 |
| CAGGGGGGG | 1 ± 0.011 |
| CAGGGGGGGG | 1.01 ± 0.031 |
| CAGGGGGGGT | 1.03 ± 0.061 |
| CAGGGGTGCG | 0.991 ± 0.013 |
| CAGGGTACGC | 1.04 ± 0.016 |
| CAGGGTTAAT | 1.012 ± 0.0094 |
| CAGGGTTCGT | 0.9894 ± 0.0081 |
| CAGGGTTGGG | 1 ± 0.019 |
| CAGGGTTTGG | 1.01 ± 0.023 |
| CAGGGTTTTA | 1.006 ± 0.0055 |
| CAGGTCGACG | 1.05 ± 0.032 |
| CAGGTCGCTT | 1.01 ± 0.0019 |
| CAGGTCTTGA | 0.9888 ± 0.0014 |
| CAGGTGGGGT | 1.16 ± 0.08 |
| CAGGTTATAT | 1.03 ± 0.028 |
| CAGGTTTCGG | 0.987 ± 0.022 |
| CAGGTTTCGT | 0.989 ± 0.021 |
| CAGGTTTGGC | 0.9775 ± 0.002 |
| CAGGTTTTGG | 0.964 ± 0.034 |

| Sequence | switch fluorescence ratio |
| --- | --- |
| CAGTAAATGT | 0.984 ± 0.054 |
| CAGTAAGAAT | 0.9809 ± 0.0019 |
| CAGTAAGAGC | 0.935 ± 0.0095 |
| CAGTAATTAT | 0.997 ± 0.02 |
| CAGTAGGGTA | 1 ± 0.045 |
| CAGTATGCAC | 1.01 ± 0.047 |
| CAGTATGGGA | 0.999 ± 0.02 |
| CAGTCAGAGT | 0.985 ± 0.023 |
| CAGTCGTCGA | 1.001 ± 0.0033 |
| CAGTCTACGA | 1.03 ± 0.015 |
| CAGTCTTGC | 1.03 ± 0.021 |
| CAGTGAAAAA | 1.06 ± 0.089 |
| CAGTGAGGGA | 0.9804 ± 0.004 |
| CAGTGAGGGG | 0.984 ± 0.029 |
| CAGTGATCTT | 0.97521 ± 0.00076 |
| CAGTGCGCGC | 1.01 ± 0.026 |
| CAGTGGAGGA | 1 ± 0.024 |
| CAGTGGGGGA | 0.993 ± 0.022 |
| CAGTGGGGGT | 1 ± 0.03 |
| CAGTGGGTCT | 0.992 ± 0.017 |
| CAGTGTCCGC | 1.07 ± 0.018 |
| CAGTTAGCAG | 1.06 ± 0.025 |
| CAGTTATTCG | 0.977 ± 0.014 |

| Sequence | switch fluorescence ratio |
| --- | --- |
| CAGTTATTGG | 0.978 ± 0.038 |
| CAGTTCCCGC | 1.16 ± 0.055 |
| CAGTTCGGGG | 0.9729 ± 0.0094 |
| CAGTTCTCTA | 0.981 ± 0.0068 |
| CAGTTGAGGT | 0.998 ± 0.013 |
| CAGTTGGGGG | 1 ± 0.031 |
| CAGTTTACGT | 0.983 ± 0.023 |
| CAGTTTATGA | 0.971 ± 0.039 |
| CAGTTTGCTG | 0.979 ± 0.018 |
| CAGTTTGGGT | 1.01 ± 0.081 |
| CATAAGGCAA | 1.282 ± 0.0088 |
| CATAAGGTTT | 0.971 ± 0.04 |
| CATAATAATC | 0.98 ± 0.026 |
| CATAATGAAG | 1.01 ± 0.014 |
| CATAATGCGG | 1.005 ± 0.0012 |
| CATAATTAAT | 0.955 ± 0.023 |
| CATACTCTTC | 1 ± 0.065 |
| CATAGCATCC | 1.48 ± 0.2 |
| CATAGCTAGG | 1.004 ± 0.0075 |
